The values below come from article PMC10834949 (2024).

This test addresses Aβ42 fibrils Aβ42 (Homo sapiens, UniProt P05067). The test is described as follows: SPR. In general terms: Surface plasmon resonance follows binding to a sensor surface in real time, without labels.

Sequence of Aβ42 fibrils Aβ42 (P05067 672-713): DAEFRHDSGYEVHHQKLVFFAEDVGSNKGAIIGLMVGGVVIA

B1: BRICHOS (proSP-C) BRICHOS (protein)
chain: TATFSIGSTGLVVYDYQQLLIAYKPAPGTCCYIMKIAPESIPSLEALTRKVHNFQMECSLQAKPAVPTSKLGQAEGRDAGSAPSGGDPAFLGMAVSTLCGEVPLYYI
Usually Kd stands for the equilibrium constant for the complex coming apart. Regarding B1, the Kd was found to be 0.0129 µM.
